In patent US20170044259A1 (CYTOMX THERAPEUTICS, published 2017):
Where a chain is given by its changes, count along the chain named.

B1: masking moiety NV01 (peptide)
peptide: RYCHAANPDRFCGIY
notes: bacterial display clone; also called NV001
B2: masking moiety NV02 (peptide)
peptide: PRVCSTDGGDYCLLP
notes: bacterial display clone; also called NV002
B3: PD-1 1.5 PD022 2001 (antibody, human IgG4 S228P, kappa)
heavy: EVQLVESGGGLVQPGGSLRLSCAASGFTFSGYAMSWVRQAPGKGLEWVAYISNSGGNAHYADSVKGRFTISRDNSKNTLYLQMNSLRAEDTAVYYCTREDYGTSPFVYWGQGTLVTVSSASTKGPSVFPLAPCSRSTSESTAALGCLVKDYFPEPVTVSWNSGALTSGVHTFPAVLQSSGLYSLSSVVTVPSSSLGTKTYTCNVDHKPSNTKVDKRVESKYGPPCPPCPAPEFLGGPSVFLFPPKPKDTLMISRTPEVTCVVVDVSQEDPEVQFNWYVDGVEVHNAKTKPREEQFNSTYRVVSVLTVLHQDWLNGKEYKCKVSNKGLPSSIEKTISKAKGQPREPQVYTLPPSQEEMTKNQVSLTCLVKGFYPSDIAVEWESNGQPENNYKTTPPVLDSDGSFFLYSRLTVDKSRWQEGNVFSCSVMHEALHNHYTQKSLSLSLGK
light: QGQSGQGFYCTYLVSLTCHPQGGGSSGGSISSGLLSGRSDNHGGGSDIQLTQSPSSLSASVGDRVTITCRASESVDAYGISFMNWFQQKPGKAPKLLIYAASNQGSGVPSRFSGSGSGTDFTLTISSMQPEDFATYYCQQSKDVPWTFGQGTKLEIKRTVAAPSVFIFPPSDEQLKSGTASVVCLLNNFYPREAKVQWKVDNALQSGNSQESVTEQDSKDSTYSLSSTLTLSKADYEKHKVYACEVTHQGLSSPVTKSFNRGEC
B4: PD-1 1.5 PD015 2001 (antibody, human IgG4 S228P, kappa)
heavy: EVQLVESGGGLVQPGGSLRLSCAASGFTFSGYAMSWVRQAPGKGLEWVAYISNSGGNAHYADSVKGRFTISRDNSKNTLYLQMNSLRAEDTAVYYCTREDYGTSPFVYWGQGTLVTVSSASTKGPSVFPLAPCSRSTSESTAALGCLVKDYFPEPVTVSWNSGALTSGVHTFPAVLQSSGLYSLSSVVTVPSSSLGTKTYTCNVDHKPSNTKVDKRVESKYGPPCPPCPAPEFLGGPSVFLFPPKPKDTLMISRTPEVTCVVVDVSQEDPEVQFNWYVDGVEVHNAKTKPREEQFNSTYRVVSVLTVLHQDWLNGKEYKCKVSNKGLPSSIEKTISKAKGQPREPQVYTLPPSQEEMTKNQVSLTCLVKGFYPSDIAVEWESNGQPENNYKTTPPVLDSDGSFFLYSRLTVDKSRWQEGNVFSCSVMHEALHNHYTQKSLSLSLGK
light: QGQSGQGVSYCTWLIEVTCLRGGGGSSGGSISSGLLSGRSDNHGGGSDIQLTQSPSSLSASVGDRVTITCRASESVDAYGISFMNWFQQKPGKAPKLLIYAASNQGSGVPSRFSGSGSGTDFTLTISSMQPEDFATYYCQQSKDVPWTFGQGTKLEIKRTVAAPSVFIFPPSDEQLKSGTASVVCLLNNFYPREAKVQWKVDNALQSGNSQESVTEQDSKDSTYSLSSTLTLSKADYEKHKVYACEVTHQGLSSPVTKSFNRGEC
B5: PD-1 1.5 PD002 2001 (antibody, human IgG4 S228P, kappa)
heavy: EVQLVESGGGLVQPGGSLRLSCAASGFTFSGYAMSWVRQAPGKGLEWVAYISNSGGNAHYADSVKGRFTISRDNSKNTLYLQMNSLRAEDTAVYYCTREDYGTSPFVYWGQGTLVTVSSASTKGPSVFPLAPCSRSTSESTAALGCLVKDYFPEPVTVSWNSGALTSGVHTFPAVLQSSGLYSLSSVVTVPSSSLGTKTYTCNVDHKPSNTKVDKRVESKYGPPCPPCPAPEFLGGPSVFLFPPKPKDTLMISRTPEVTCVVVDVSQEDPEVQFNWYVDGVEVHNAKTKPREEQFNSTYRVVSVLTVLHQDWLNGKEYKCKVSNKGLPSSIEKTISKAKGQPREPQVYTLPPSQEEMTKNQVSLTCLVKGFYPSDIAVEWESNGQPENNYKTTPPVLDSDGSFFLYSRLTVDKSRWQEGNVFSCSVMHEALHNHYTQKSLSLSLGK
light: QGQSGQGDVNCAIWYSVCTTVPGGGSSGGSISSGLLSGRSDNHGGGSDIQLTQSPSSLSASVGDRVTITCRASESVDAYGISFMNWFQQKPGKAPKLLIYAASNQGSGVPSRFSGSGSGTDFTLTISSMQPEDFATYYCQQSKDVPWTFGQGTKLEIKRTVAAPSVFIFPPSDEQLKSGTASVVCLLNNFYPREAKVQWKVDNALQSGNSQESVTEQDSKDSTYSLSSTLTLSKADYEKHKVYACEVTHQGLSSPVTKSFNRGEC
B6: PD-1 1.5 PD01 2001 (antibody, human IgG4 S228P, kappa)
heavy: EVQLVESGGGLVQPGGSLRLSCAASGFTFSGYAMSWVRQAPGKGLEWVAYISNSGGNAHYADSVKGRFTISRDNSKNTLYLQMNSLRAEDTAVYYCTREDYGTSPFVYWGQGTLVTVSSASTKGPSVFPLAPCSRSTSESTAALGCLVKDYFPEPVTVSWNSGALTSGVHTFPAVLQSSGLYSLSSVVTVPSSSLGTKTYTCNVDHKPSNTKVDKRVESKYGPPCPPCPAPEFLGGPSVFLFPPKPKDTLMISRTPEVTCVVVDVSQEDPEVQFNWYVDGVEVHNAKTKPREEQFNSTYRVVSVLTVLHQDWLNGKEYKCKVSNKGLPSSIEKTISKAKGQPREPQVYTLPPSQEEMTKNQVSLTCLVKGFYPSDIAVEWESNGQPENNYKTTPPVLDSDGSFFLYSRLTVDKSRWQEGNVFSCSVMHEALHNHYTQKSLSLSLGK
light: QGQSGQGAMSGCSWSAFCPYLAGGGSSGGSISSGLLSGRSDNHGGGSDIQLTQSPSSLSASVGDRVTITCRASESVDAYGISFMNWFQQKPGKAPKLLIYAASNQGSGVPSRFSGSGSGTDFTLTISSMQPEDFATYYCQQSKDVPWTFGQGTKLEIKRTVAAPSVFIFPPSDEQLKSGTASVVCLLNNFYPREAKVQWKVDNALQSGNSQESVTEQDSKDSTYSLSSTLTLSKADYEKHKVYACEVTHQGLSSPVTKSFNRGEC
B7: PD-1 1.5 PD021 2001 (antibody, human IgG4 S228P, kappa)
heavy: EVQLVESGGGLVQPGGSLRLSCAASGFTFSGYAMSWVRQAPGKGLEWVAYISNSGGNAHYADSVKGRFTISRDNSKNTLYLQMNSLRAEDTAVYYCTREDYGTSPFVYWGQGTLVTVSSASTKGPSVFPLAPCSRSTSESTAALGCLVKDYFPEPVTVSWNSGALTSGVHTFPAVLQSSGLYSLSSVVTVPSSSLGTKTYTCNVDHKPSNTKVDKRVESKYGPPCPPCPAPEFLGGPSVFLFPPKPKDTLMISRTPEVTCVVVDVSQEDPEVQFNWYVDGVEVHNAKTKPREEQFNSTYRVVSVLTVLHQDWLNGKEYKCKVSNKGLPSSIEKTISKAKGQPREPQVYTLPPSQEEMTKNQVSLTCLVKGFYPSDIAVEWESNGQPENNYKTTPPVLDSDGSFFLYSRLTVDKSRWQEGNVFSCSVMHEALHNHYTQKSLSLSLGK
light: QGQSGQGLSVECYVFSRCSSLPGGGSSGGSISSGLLSGRSDNHGGGSDIQLTQSPSSLSASVGDRVTITCRASESVDAYGISFMNWFQQKPGKAPKLLIYAASNQGSGVPSRFSGSGSGTDFTLTISSMQPEDFATYYCQQSKDVPWTFGQGTKLEIKRTVAAPSVFIFPPSDEQLKSGTASVVCLLNNFYPREAKVQWKVDNALQSGNSQESVTEQDSKDSTYSLSSTLTLSKADYEKHKVYACEVTHQGLSSPVTKSFNRGEC
B8: PD-1 1.5 PD024 2001 (antibody, human IgG4 S228P, kappa)
heavy: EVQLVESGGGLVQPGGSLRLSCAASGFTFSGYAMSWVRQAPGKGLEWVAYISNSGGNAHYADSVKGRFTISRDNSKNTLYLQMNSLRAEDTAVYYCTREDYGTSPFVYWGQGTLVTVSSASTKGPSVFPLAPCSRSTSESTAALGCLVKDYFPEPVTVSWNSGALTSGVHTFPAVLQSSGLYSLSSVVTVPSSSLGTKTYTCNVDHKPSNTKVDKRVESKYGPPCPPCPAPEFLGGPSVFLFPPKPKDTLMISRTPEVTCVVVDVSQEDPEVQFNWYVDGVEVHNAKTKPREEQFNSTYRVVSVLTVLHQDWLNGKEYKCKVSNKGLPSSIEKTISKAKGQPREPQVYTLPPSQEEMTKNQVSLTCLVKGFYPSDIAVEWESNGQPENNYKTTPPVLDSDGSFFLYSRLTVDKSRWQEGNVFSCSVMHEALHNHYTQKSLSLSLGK
light: QGQSGQGIYSCYMFASRCTSDKGGGSSGGSISSGLLSGRSDNHGGGSDIQLTQSPSSLSASVGDRVTITCRASESVDAYGISFMNWFQQKPGKAPKLLIYAASNQGSGVPSRFSGSGSGTDFTLTISSMQPEDFATYYCQQSKDVPWTFGQGTKLEIKRTVAAPSVFIFPPSDEQLKSGTASVVCLLNNFYPREAKVQWKVDNALQSGNSQESVTEQDSKDSTYSLSSTLTLSKADYEKHKVYACEVTHQGLSSPVTKSFNRGEC
B9: PD-1 1.5 PD018 2001 (antibody, human IgG4 S228P, kappa)
heavy: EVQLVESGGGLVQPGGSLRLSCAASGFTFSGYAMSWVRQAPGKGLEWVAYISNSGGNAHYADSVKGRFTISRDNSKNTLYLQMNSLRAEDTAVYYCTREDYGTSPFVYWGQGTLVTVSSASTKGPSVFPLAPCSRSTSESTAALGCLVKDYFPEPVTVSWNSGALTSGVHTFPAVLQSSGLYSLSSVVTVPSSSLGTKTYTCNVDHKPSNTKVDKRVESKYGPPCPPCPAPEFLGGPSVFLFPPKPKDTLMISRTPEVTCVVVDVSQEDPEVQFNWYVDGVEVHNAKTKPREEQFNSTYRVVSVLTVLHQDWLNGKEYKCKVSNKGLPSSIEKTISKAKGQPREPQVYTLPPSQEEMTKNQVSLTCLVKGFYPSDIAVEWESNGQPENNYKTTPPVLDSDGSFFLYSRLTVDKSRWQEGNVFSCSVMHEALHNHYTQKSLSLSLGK
light: B8 light with I8A, Y9P, S10R, R17Y, T19K, D21Q, K22Y
B10: PD-1 1.5 PD005 2001 (antibody, human IgG4 S228P, kappa)
heavy: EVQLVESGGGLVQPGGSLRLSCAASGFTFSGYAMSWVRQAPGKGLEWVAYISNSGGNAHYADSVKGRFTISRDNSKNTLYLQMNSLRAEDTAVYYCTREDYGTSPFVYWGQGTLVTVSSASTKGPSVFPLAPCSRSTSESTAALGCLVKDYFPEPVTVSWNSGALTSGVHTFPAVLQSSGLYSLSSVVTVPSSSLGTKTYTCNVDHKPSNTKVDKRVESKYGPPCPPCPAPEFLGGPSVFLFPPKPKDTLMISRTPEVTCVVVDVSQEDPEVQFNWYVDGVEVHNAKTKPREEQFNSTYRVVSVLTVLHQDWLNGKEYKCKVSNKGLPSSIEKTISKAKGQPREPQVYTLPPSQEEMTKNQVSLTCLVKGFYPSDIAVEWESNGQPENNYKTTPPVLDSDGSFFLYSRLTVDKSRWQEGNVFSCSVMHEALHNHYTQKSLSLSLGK
light: QGQSGQGMLVCSLQPTAMCERVGGGSSGGSISSGLLSGRSDNHGGGSDIQLTQSPSSLSASVGDRVTITCRASESVDAYGISFMNWFQQKPGKAPKLLIYAASNQGSGVPSRFSGSGSGTDFTLTISSMQPEDFATYYCQQSKDVPWTFGQGTKLEIKRTVAAPSVFIFPPSDEQLKSGTASVVCLLNNFYPREAKVQWKVDNALQSGNSQESVTEQDSKDSTYSLSSTLTLSKADYEKHKVYACEVTHQGLSSPVTKSFNRGEC
B11: PD-1 1.5 PD011 2001 (antibody, human IgG4 S228P, kappa)
heavy: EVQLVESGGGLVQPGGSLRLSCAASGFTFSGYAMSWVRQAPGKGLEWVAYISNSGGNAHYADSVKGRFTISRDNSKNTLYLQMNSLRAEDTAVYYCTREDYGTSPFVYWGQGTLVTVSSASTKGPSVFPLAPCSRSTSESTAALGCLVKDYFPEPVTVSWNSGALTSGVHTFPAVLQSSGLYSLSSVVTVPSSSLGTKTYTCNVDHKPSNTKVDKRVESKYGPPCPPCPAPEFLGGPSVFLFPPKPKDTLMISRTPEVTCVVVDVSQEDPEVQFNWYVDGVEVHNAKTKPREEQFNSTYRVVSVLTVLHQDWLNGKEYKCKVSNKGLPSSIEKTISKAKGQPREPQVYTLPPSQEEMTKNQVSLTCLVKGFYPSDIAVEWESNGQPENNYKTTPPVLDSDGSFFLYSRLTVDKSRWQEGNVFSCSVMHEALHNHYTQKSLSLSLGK
light: B10 light with M8V, L9P, V10W, S12Q, Q14T, T16R, A17V, E20M, R21W, V22A
B12: masking moiety PM01 (peptide)
peptide: GCDFTSAKHNCGSGW
notes: bacterial display clone; also called PM001
B13: masking moiety PM02 (peptide)
peptide: VGSNCWTGPACALTS
notes: bacterial display clone; also called PM002
B14: masking moiety MP001 (peptide)
peptide: DYTYCRWVNWCLSGV
notes: bacterial display clone; also called MP01; MP-01
B15: masking moiety MP013 (peptide)
peptide: HYTICMTHNKCKDMA
notes: bacterial display clone; also called MP13
B16: masking moiety MP005 (peptide)
peptide: PGNCHPMQKEMCQFI
notes: bacterial display clone; also called MP05
B17: masking moiety MP011 (peptide)
peptide: SRQICADYNCHNKYK
notes: bacterial display clone; also called MP11
B18: masking moiety MP012 (peptide)
peptide: QPCNPQIDHKIKCIY
notes: bacterial display clone; also called MP12
B19: masking moiety MP007 (peptide)
peptide: TIPRCGQHPKCKDTL
notes: bacterial display clone; also called MP07
B20: masking moiety MP002 (peptide)
peptide: ILCPEDPWGHKCKLP
notes: bacterial display clone; also called MP02; MP-02
B21: masking moiety MP006 (peptide)
peptide: VEHLCYTHNKCKHPD
notes: bacterial display clone; also called MP06
B22: masking moiety MP014 (peptide)
peptide: ANSCLAVEHKCKHNY
notes: bacterial display clone; also called MP14
B23: masking moiety MP009 (peptide)
peptide: LIQCTGNLDHKCKHY
notes: bacterial display clone; also called MP09
B24: masking moiety MP003 (peptide)
peptide: TNIWSCQTYCDHKHK
notes: bacterial display clone; also called MP03
B25: masking moiety MP010 (peptide)
peptide: IPCHHSADHKHKCTS
notes: bacterial display clone; also called MP10
B26: masking moiety MP008 (peptide)
peptide: ACRICQDHPKTKWNS
notes: bacterial display clone; also called MP08
B27: masking moiety MP004 (peptide)
peptide: SDHKCKLQNCMNTKV
notes: bacterial display clone; also called MP04

These binders were tested against T1, nivolumab (assay: bacterial display clone with labeled NV1).
T1 construct: also called NV1; NV1 nivo
T1 sequence (VH, as listed by the source, chain 1 of 2): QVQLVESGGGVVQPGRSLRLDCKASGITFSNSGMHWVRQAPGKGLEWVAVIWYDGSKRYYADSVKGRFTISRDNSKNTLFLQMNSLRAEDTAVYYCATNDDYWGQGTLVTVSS
T1 sequence (VL, as listed by the source, chain 2 of 2): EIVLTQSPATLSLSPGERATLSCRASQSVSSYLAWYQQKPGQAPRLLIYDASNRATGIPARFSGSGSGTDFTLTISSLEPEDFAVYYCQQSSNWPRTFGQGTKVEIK
YTFGCPDRYCDRAAT (bacterial display clone) [masking moiety NV07]: binds.
LPRCPDHPIKCIETK (bacterial display clone) [masking moiety NV06]: binds.
ASYRCPDYKCSHTKH (bacterial display clone) [masking moiety NV05]: binds.
PRPQCHHRHNCPDHP (bacterial display clone) [masking moiety NV03]: binds.
RGCPDFNPPSHCYTA (bacterial display clone) [masking moiety NV08]: binds.
RGCKKHTISTLTCPD (bacterial display clone) [masking moiety NV12]: binds.
PRVACGEPDLCYSNT (bacterial display clone) [masking moiety NV11]: binds.
RDYCGPQSPDYCHEI (bacterial display clone) [masking moiety NV09]: binds.
KCSRPAHQNPDRCSR (bacterial display clone) [masking moiety NV04]: binds.
B1: binds.
PNKPCPDLQCYVTNY (bacterial display clone) [masking moiety NV10]: binds.
B2: binds.

Each binder was assayed against T2, human PD-1-Fc (R and D systems, Minneapolis, Minn.) (human, UniProt Q15116 25-167) (assay: plate ELISA on human PD-1-Fc; apparent KD).
T2 construct: bought; also called hPD-1-Fc; hPD-1; not shown: Fc part of the bought fusion
T2 sequence (Q15116 25-167 limits assumed): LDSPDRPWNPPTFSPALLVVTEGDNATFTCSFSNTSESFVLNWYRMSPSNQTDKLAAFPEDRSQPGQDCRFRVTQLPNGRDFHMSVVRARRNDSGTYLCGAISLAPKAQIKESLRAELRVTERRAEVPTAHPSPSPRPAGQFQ
For B3, the Kd was 41 nM.
Work on B4 yielded a Kd of 117 nM.
Binder B5 has a Kd of 21 nM.
For B6, the Kd was 348 nM.
B7 was tested, and the Kd was 49 nM.
For B8, the Kd was 92 nM.
For B9, the Kd was 75 nM.
In the case of B10, the Kd is reported as 68 nM.
With B11 the Kd was 67 nM.

Each binder was assayed against T3, pembrolizumab (assay: bacterial display clone with labeled PM1).
T3 construct: also called PM1; PM1 AB
T3 sequence (VH, as listed by the source, chain 1 of 2): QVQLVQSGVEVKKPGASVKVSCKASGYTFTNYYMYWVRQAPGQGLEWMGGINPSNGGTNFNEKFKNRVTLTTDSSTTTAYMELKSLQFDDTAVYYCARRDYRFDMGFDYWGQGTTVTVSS
T3 sequence (VL, as listed by the source, chain 2 of 2): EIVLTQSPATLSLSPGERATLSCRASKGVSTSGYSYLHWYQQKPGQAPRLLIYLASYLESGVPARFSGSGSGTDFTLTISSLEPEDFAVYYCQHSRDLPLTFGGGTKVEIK
KLTEDFSSAA (bacterial display clone) [masking moiety PM09]: binds.
MSCWDFSSAQGCGQH (bacterial display clone) [masking moiety PM05]: binds.
B12: binds.
VGQSCFSGLVCDRQL (bacterial display clone) [masking moiety PM10]: binds.
ELCGWQSFSGVCTSE (bacterial display clone) [masking moiety PM07]: binds.
B13: binds.
LMCADLHYNHYNCKY (bacterial display clone) [masking moiety PM06]: binds.
FCAVMFDFLSDRCLH (bacterial display clone) [masking moiety PM03]: binds.
WTYENCWASCQPHLE (bacterial display clone) [masking moiety PM08]: binds.
FCPPWLDYLGNKCMT (bacterial display clone) [masking moiety PM04]: binds.

What follows are binders tested against T2, human PD-1-Fc (R and D systems, …) (assay: plate ELISA on human PD-1-Fc; reference A1.5).
In the case of B3, the “Masking Efficiency” value is reported as 23.
In the case of B4, the “Masking Efficiency” value is reported as 65.
For B5, the “Masking Efficiency” value was 12.
With B6 the “Masking Efficiency” value was 193.
With B7 the “Masking Efficiency” value was 27.
For B8, the “Masking Efficiency” value was 51.
B9 was tested, and the “Masking Efficiency” value was 42.
In the case of B10, the “Masking Efficiency” value is reported as 38.
For B11, the “Masking Efficiency” value was 37.

What follows are binders tested against T4, J43v2 mIgG2a (assay: bacterial display clone with DyLight 650 labeled J43v2 m2a).
T4 construct: also called J43 m2a; J43v2 m2a
T4 sequence (VH, as listed by the source, chain 1 of 2): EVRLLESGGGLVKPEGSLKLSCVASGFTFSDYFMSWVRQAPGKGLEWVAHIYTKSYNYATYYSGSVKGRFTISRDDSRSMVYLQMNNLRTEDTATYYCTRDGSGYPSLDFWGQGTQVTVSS
T4 sequence (VL, as listed by the source, chain 2 of 2): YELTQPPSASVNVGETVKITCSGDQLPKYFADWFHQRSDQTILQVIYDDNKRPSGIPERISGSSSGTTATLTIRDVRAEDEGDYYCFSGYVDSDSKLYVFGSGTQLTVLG
B14: binds.
B15: binds.
B16: binds.
B17: binds.
B18: binds.
B19: binds.
B20: binds.
B21: binds.
B22: binds.
B23: binds.
B24: binds.
B25: binds.
B26: binds.
B27: binds.
